Measured values as given in doi:10.1101/2024.11.27.625426 (bioRxiv, 2024).

Legend:
[1] = target: sNAp of A/Vietnam/1203/2004 (VN04, H5N1) NA (Influenza A virus A/Vietnam/1203/2004 …, UniProt Q6DPL2, stabilised); assay: ELISA; conditions: both partners purified
[2] = target: T1, N1-CA09-sNAp, stabilized neuraminidase protein of A/California/04/2009 (H1N1) (Influenza A virus A/California/04/2009 …, stabilised); assay: cryo-EM structure; conditions: both partners purified
T1 chain: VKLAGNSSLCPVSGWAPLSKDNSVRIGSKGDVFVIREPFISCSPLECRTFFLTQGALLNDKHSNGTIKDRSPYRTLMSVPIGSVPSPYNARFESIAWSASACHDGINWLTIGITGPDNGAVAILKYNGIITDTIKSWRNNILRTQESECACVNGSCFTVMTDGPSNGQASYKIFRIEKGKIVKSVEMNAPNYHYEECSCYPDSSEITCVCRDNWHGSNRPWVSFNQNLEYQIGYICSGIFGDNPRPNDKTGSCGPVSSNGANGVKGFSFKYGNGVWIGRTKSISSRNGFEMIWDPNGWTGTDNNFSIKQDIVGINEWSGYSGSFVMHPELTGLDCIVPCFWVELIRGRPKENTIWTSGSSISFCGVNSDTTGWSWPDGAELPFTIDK

Binder | binding result [1] | stoichiometry N [2] [Fabs per NA tetramer]
NCS.1.1 mAb (IgG) (antibody, V domains shown, copies: 2 + 2) VH: QVQLQESGPRLVKPSETLSLTCSVSGESISSGGYYWTWIRQHPGKGLEWIGNIFDTGSTDYSPSLKTRLTISIDTSKNQFYLRLNSATAADTAVYYCARVGFSLETDRPYYLGLDVWGQGTTVTVSS VL: DIVMTQSPLSLPVTPGEPASISCRSSQSLLHSNGYTYLDWYLQKPGQSPQLLISFTSNRASGVPDRFSGSGSGTYFTLKISRVEAEDVGVYYCMQAVQTPWTFGQGTKVEIK | binds | –
NCS.1.3 mAb (IgG) (antibody, V domains shown, copies: 2 + 2) VH: QVQLQESGPRLVKPSETLSLTCSVSGESISSGGYYWTWIRQHPGKGLEWIGNIFDTGSTDYSPSLKTRLTISIDTSKNQFYLRLTSATAADTAVYYCARVGFSLETDRPYYLGLDVWGQGTTVTVSS VL: DIVMTQSPLTLPVTPGEPASISCRSSQSLLHSNGYTYLDWYLQKPGQSPQLLIYFASNRASGVPDRFSGSGSGTYFTLKISRVEAEDVGVYYCMQAVQSPWTFGQGTKVEIK | binds | –
NCS.1.1 Fab (Fab, V domains shown) VH: QVQLQESGPRLVKPSETLSLTCSVSGESISSGGYYWTWIRQHPGKGLEWIGNIFDTGSTDYSPSLKTRLTISIDTSKNQFYLRLNSATAADTAVYYCARVGFSLETDRPYYLGLDVWGQGTTVTVSS VL: DIVMTQSPLSLPVTPGEPASISCRSSQSLLHSNGYTYLDWYLQKPGQSPQLLISFTSNRASGVPDRFSGSGSGTYFTLKISRVEAEDVGVYYCMQAVQTPWTFGQGTKVEIK | – | 4
